Measurements from US20210032308A1.
“And” between values parts separate entries of the source, which are not always exact repeats. Equal entries are not always repeated.

Columns and labels:
[1] = molecular target: human CD2 on primary human T cells (human) (UniProt P06729); test: flow cytometry, calculated Kd of competitor antibody; human CD4 central memory T cells
[2] = molecular target: human CD2 on primary human T cells (human) (UniProt P06729); test: flow cytometry, calculated Kd of competitor antibody; human CD8 naïve T cells
[3] = molecular target: human CD2 on primary human T cells (human) (UniProt P06729); test: flow cytometry, calculated Kd of competitor antibody; expanded human CD4 Treg cells
[4] = molecular target: human CD2 on primary human T cells (human) (UniProt P06729); test: flow cytometry, calculated Kd of competitor antibody; human CD8 memory T cells
[5] = molecular target: human CD2 on primary human T cells (human) (UniProt P06729); test: flow cytometry, calculated Kd of competitor antibody; human CD4 memory T cells
[6] = molecular target: human CD2 on primary human T cells (human) (UniProt P06729); test: flow cytometry, calculated Kd of competitor antibody; human CD4 naïve T cells
[7] = molecular target: human CD2 on primary human T cells (human) (UniProt P06729); test: flow cytometry, calculated Kd of competitor antibody; human CD4 effector memory T cells

Chain of human CD2 on primary human T cells (human) (P06729 25-351): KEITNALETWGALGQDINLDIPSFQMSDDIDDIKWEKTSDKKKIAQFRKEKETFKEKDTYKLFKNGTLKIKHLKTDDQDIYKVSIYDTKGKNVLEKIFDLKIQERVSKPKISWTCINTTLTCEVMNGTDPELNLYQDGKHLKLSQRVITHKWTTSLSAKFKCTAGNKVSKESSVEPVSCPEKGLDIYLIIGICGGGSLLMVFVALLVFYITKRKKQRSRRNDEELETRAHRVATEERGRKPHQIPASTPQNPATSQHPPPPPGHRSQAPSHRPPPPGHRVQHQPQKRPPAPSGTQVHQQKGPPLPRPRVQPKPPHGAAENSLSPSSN

Kd [1]: 44.7 nM | Kd [2]: 14.8 nM and 31 nM | Kd [3]: 67.9 nM | Kd [4]: 11 nM | Kd [5]: 23.7 nM and 42 nM | Kd [6]: 18.2 nM and 23.8 nM | Kd [7]: 34 nM
Substance: anti-CD2-FITC (clone RPA2.10) (antibody)
